# Test results reported in the supplement of paper PMC12042874.
# ± gives the uncertainty stated by the source.
# Test: amyloid nucleation score (Sup35N fusion, yeast selection) (log enrichment); library NNK1; higher = more nucleation; inactive = no reads after selection
# Procedure, shortened: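 DiMSum was used to calculate nucleation scores as log enrichment of output over input reads, centred on the mode score of non-aggregating sequences. Sequences with fewer than 100 input reads were not scored. Input and output came from Illumina sequencing of plasmid inserts in psi-negative yeast expressing peptides of 20 random codons fused to Sup35N, induced 24 hours with 100 μM copper sulfate and then grown 7 days at 30°C on medium lacking adenine and uracil.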
row,Substance,amyloid nucleation score
1,SSKLDVCEFADDGQLVFGVG,-0.394 ± 0.61
2,SSLASMASVDRKNHRGSGEG,1.77 ± 0.11
3,SSLGNEFIFDSFGNK,-0.772 ± 0.73
4,SSLLFEPATASFILQD,-0.894 ± 0.68
5,SSLPRPPMPKWSDV,0.125 ± 0.88
6,SSMLSISVFEWITFRWR,0.181 ± 0.58
7,SSQRGGNPGIMFNWEIVLRG,2.59 ± 0.14
8,SSSFTSNSFLLLLWSYKDMF,1.16 ± 0.21
9,SSVILSDCSCFMVHQCWYLC,-2.13 ± 2.7
10,SSWSGMFTCSYTMMLWLRRL,-0.692 ± 0.75
11,STDLSYVSCAYVSTFLPNFR,2.2 ± 0.21
12,STILPIGWNFDCCITISSCV,0.372 ± 0.28
13,STMFYLIFCQCTSIYANLYQ,0.063 ± 0.41
14,STPAVDALRYCMTSIAFRKI,-1.11 ± 0.58
15,STRHPTKNR,0.823 ± 0.21
16,STRSLSCLFLNRTSHCLGTL,-0.721 ± 1.4
17,STVREFSVVGPYVTGSVAGR,0.383 ± 0.71
18,STYPLEEYKGSGCLAG,-0.522 ± 0.39
19,SVANGALSRLAYIKRYRVWW,0.522 ± 0.45
20,SVARFNVWVVLSSRNVTCQS,1.82 ± 0.12
21,SVDNMVGVTGSFGGARVILS,-0.237 ± 0.39
22,SVDVTRIIMIVVCRFKMWEL,0.736 ± 0.32

row,Substance,amyloid nucleation score
1,SVESYTKAISIYTIGERIVL,-0.004 ± 1.6
2,SVFELLCSPQSVNRTFNTPY,1.09 ± 0.36
3,SVFSLVYGKN,0.685 ± 0.81
4,SVGLTFNGGVYCSHVERTSW,1.93 ± 0.19
5,SVKRMWYLDV,-0.483 ± 0.32
6,SVLCELRV,-0.182 ± 0.36
7,SVLRRQDFTKLLMFRSGPLG,0.424 ± 0.38
8,SVLSSLVSEISGVVCLVLGH,-0.214 ± 0.57
9,SVNKSSKVFTELANVHERAL,0.136 ± 0.66
10,SVNRLTLKPSYAKYRVYSGH,0.46 ± 0.68
11,SVNTPTGSIFEICQYDSIKG,-0.302 ± 0.45
12,SVPMMSML,0.019 ± 0.25
13,SVSEWRQVILIIGVIVK,-0.278 ± 0.51
14,SVSVQERTSGVYSHVSSENY,-0.162 ± 0.45
15,SVSVSCFVV,inactive
16,SVSWYAMLRLSEIRDRCKSF,0.278 ± 0.32
17,SVSYVELLGAFIKGLGIIYF,-0.999 ± 0.63
18,SVVFGSSYRNAVGCWTWSQG,0.6 ± 0.4
19,SVVFLQRFLDR,-0.564 ± 1.2
20,SVVNDFVYRL,-0.588 ± 0.86
21,SVVSFINLIASYFRELVGAV,0.225 ± 0.95
22,SVWFWFSKGWFSLCWAFFEK,0.428 ± 1.2

row,Substance,amyloid nucleation score
1,SWALRWYPELIET,0.076 ± 0.29
2,SWEQMSYASSFISNVGRHKG,1.34 ± 0.2
3,SWGTGVIPMVRNSLRECTEL,-0.388 ± 0.98
4,SWIHVHHL,0.691 ± 0.7
5,SWMNS,0.759 ± 0.55
6,SWNRGVLESHKHAYFALPQF,0.417 ± 0.24
7,SWNVVFKVPLGLRVLYGYLC,-0.197 ± 0.28
8,SWSPRHELPLGKLRWIWDRG,1.03 ± 0.75
9,SWSSGGNFARFIQYVPATHA,0.117 ± 0.72
10,SWSSVQSAVKGHPLGGNTGR,-0.72 ± 0.74
11,SWVWCYWILSWIREFLLRQG,0.447 ± 0.42
12,SWWLICYYVSWYFSD,-1.69 ± 1.1
13,SWYCGTASLVAKAVADRAGD,0.062 ± 0.5
14,SYAMLCIYVGYFIFLNSRMS,inactive
15,SYCYKDGWELVLEYLFVNCT,1.21 ± 0.45
16,SYECVQNRQCAIGGNRSERF,0.666 ± 0.93
17,SYEVFEIISNCLEY,-0.321 ± 0.35
18,SYGDQSVEKSLRSTATPDPQ,0.105 ± 0.35
19,SYGLWHMAM,-0.232 ± 0.54
20,SYHSMA,inactive
21,SYILCHWTFGDKGRFPQNYR,2.3 ± 0.18
22,SYILEKGLQTAYCVC,1.42 ± 0.46

row,Substance,amyloid nucleation score
1,SYKGWVGLVLRVETDGNWSR,2.28 ± 0.13
2,SYKSWQ,0.978 ± 0.43
3,SYLFWDRCYSA,-0.247 ± 0.4
4,SYLGCVHWSRRTDLVTFFDF,0.495 ± 0.27
5,SYLNPTVMILGFYP,0.825 ± 0.41
6,SYPESTTRNF,-0.209 ± 0.39
7,SYRIMPLMCILNCLFNCIYI,4.8 ± 0.059
8,SYRPFLMLGAQLQPYRVSGS,1.32 ± 0.6
9,SYRSYGSSSCSVWRTAAGDQ,2.9 ± 0.084
10,SYTRPILIWSLNRFSAG,1.26 ± 0.34
11,SYVKDNISVSGADILTGAIC,-0.367 ± 0.48
12,SYVYHPTSRLVWIIRMIT,0.5 ± 0.38
13,TAIIPPHFLASDSFRWSCAC,0.008 ± 0.34
14,TALESFRHCLVQSNPGSQVV,-0.217 ± 0.5
15,TARRKSYDIFMLIMWFVAYY,2.53 ± 0.12
16,TASGVDIVRRGCPRLVMLVV,-0.42 ± 0.43
17,TASNDYLDIDPSMDQSRWCG,0.518 ± 0.27
18,TAYWIVYRVKGLLRFFSRLA,0.011 ± 0.36
19,TCIARHLQILSVNRCCVRFA,0.062 ± 0.44
20,TCIIFIYNSWSSLQPFMSGM,2.65 ± 0.21
